Source: paper PMC11419269

Key:
C1q (Homo sapiens) = C1q (Homo sapiens) (UniProt P02745); experiment: ELISA; conditions: cited from earlier work
[1] = target: oAβ42 Aβ42 (Homo sapiens) (UniProt P05067); conditions: cited from earlier work
TREM2 WT (human) [2] = target: TREM2 WT (human) (UniProt Q9NZC2); experiment: BLI; sequential competition: biotinylated TREM2 WT on SA biosensors, first ligand or no ligand at one concentration (500 nM apoE2, apoE4, oAβ42 or IL-34; 1000 nM C1q), buffer, then second ligand
TREM2 WT (human) [3] = target: TREM2 WT (human) (UniProt Q9NZC2); experiment: BLI; biotinylated TREM2 WT and variants immobilised on SA biosensors; C1q 62.5 – 1000 nM in PBS with 0.1% BSA and 0.005% Tween-20; 1:1 kinetic fits
TREM2 M41D (human) = TREM2 M41D (human) (UniProt Q9NZC2); experiment: as above
TREM2 R47H (human) = TREM2 R47H (human) (UniProt Q9NZC2); experiment: as above
TREM2 F74D (human) = TREM2 F74D (human) (UniProt Q9NZC2); experiment: as above
TREM2 L71D (human) = TREM2 L71D (human) (UniProt Q9NZC2); experiment: as above
TREM2 R62H (human) = TREM2 R62H (human) (UniProt Q9NZC2); experiment: as above
Chain of TREM2 R62H (human) (Q9NZC2 19-174 R62H): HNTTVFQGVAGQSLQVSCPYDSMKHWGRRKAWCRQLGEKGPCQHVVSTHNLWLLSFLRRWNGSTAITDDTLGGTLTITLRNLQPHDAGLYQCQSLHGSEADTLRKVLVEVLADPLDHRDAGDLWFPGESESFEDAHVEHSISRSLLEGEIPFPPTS

Chain of TREM2 (Q9NZC2 19-174): as the sequence (Q9NZC2 19-174 R62H) above, with H44R counted along it
Chain of TREM2 WT (human) (Q9NZC2 19-174): as the sequence (Q9NZC2 19-174 R62H) above, with H44R counted along it
Chain of TREM2 M41D (human) (Q9NZC2 19-230 M41D): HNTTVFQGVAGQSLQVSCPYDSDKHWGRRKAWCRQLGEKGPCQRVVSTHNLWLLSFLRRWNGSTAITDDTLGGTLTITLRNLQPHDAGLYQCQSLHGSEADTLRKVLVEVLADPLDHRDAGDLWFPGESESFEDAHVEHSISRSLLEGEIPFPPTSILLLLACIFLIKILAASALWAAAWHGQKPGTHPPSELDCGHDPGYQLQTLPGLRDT
Chain of TREM2 F74D (human) (Q9NZC2 19-230 F74D): as the sequence (Q9NZC2 19-230 M41D) above, with D23M, F56D counted along it
Chain of TREM2 R47H (human) (Q9NZC2 19-174 R47H): as the sequence (Q9NZC2 19-174 R62H) above, with R29H, H44R counted along it
Chain of TREM2 L71D (human) (Q9NZC2 19-230 L71D): as the sequence (Q9NZC2 19-230 M41D) above, with D23M, L53D counted along it
Chain of C1q (Homo sapiens) (P02745 23-245, chain 1 of 3): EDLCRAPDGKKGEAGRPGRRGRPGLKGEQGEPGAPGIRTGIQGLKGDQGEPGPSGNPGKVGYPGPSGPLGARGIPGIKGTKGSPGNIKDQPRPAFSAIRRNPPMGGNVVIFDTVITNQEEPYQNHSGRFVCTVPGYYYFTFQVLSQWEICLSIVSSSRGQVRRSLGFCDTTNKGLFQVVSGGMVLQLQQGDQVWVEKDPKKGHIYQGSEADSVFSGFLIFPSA
Chain of C1q (Homo sapiens) (P02746 28-253, chain 2 of 3, further chain): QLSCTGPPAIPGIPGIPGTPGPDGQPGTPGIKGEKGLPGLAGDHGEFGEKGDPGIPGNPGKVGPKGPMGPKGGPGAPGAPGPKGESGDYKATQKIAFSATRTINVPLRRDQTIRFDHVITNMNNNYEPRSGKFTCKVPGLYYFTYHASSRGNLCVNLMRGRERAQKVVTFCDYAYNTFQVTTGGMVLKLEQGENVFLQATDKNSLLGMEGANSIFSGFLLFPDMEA
Chain of C1q (Homo sapiens) (P02747 29-245, chain 3 of 3, further chain): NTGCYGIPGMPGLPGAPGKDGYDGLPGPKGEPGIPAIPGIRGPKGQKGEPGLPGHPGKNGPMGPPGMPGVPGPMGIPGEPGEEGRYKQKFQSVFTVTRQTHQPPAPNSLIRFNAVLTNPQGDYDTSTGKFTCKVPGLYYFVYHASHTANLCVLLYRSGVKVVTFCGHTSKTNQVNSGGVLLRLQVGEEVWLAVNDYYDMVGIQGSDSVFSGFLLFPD

## TREM2 (from UniProt Q9NZC2)
C1q (Homo sapiens)
  Kd: 7.35 nM
[1]
  Kd: 526 nM

## complement C1q (complex)
TREM2 WT (human) [2]
  percent decrease of apoE2 binding to TREM2 after pre-binding 1000 nM C1q: 11.4%
TREM2 WT (human) [3]
  Kd: 650 nM
TREM2 M41D (human)
  Kd: 2540 nM
TREM2 R47H (human)
  Kd: 180 nM
TREM2 F74D (human)
  Kd: 110 nM
TREM2 L71D (human)
  Kd: 58 nM
TREM2 R62H (human)
  Kd: 1660 nM
